Measured values published in patent US20200087400A1 (EUREKA THERAPEUTICS, published 2020).

Key:
[1] = molecular target: T1, control peptide A2E-1/HLA-A*02:01 complex on T2 cells (member of the P19 mixture) (human); assay: flow cytometry, phage on T2 cells
T1 construct: Loaded on T2 cells as part of the mixture of 19 control peptides
Experimental: (§1) Individual phage clones from enriched phage display panning pools against PSA146/HLA-A*02:01 complex were incubated in the coated plates. Binding of the phage clones was detected by HRP-conjugated anti-M13 antibodies and developed using HRP substrate. The absorbance was read at 450 nm. […] Then, unique antibody clones were identified through DNA sequencing of ELISA-positive clones. […] T2 cells loaded with different peptides and β2M were first stained with purified scFv phage clones, followed by staining with a mouse anti-M13 mAb, and finally R-PE conjugated horse anti-mouse IgG from Vector Labs. Each step of the staining was performed for between 30-60 minutes on ice and the cells were washed twice between stainings. All 16 clones recognized PSA146-loaded T2 cells specifically. FIG. 3 provides examples of PSA146/HLA-A*02:01 specific phage clone binding to peptide-loaded T2 cells through FACS.

[2] = molecular target: T2, control peptide A2E-2/HLA-A*02:01 complex on T2 cells (member of the P19 mixture) (human); assay: flow cytometry, phage on T2 cells
T2 construct: Loaded on T2 cells as part of the mixture of 19 control peptides
Experimental: as §1

[3] = molecular target: T3, control peptide A2E-3/HLA-A*02:01 complex on T2 cells (member of the P19 mixture) (human); assay: flow cytometry, phage on T2 cells
T3 construct: Loaded on T2 cells as part of the mixture of 19 control peptides
Experimental: as §1

[4] = molecular target: T4, control peptide A2E-4/HLA-A*02:01 complex on T2 cells (member of the P19 mixture) (human); assay: flow cytometry, phage on T2 cells
T4 construct: Loaded on T2 cells as part of the mixture of 19 control peptides
Experimental: as §1

[5] = molecular target: T5, control peptide A2E-5/HLA-A*02:01 complex on T2 cells (member of the P19 mixture) (human); assay: flow cytometry, phage on T2 cells
T5 construct: Loaded on T2 cells as part of the mixture of 19 control peptides
Experimental: as §1

[6] = molecular target: T6, control peptide A2E-6/HLA-A*02:01 complex on T2 cells (member of the P19 mixture) (human); assay: flow cytometry, phage on T2 cells
T6 construct: Loaded on T2 cells as part of the mixture of 19 control peptides
Experimental: as §1

[7] = molecular target: T7, control peptide A2E-7/HLA-A*02:01 complex on T2 cells (member of the P19 mixture) (human); assay: flow cytometry, phage on T2 cells
T7 construct: Loaded on T2 cells as part of the mixture of 19 control peptides
Experimental: as §1

[8] = molecular target: T8, control peptide A2E-8/HLA-A*02:01 complex on T2 cells (member of the P19 mixture) (human); assay: flow cytometry, phage on T2 cells
T8 construct: Loaded on T2 cells as part of the mixture of 19 control peptides
Experimental: as §1

[9] = molecular target: T9, control peptide A2E-9/HLA-A*02:01 complex on T2 cells (member of the P19 mixture) (human); assay: flow cytometry, phage on T2 cells
T9 construct: Loaded on T2 cells as part of the mixture of 19 control peptides
Experimental: as §1

[10] = molecular target: T10, control peptide A2E-10/HLA-A*02:01 complex on T2 cells (member of the P19 mixture) (human); assay: flow cytometry, phage on T2 cells
T10 construct: Loaded on T2 cells as part of the mixture of 19 control peptides
Experimental: as §1

[11] = molecular target: T11, control peptide A2E-11/HLA-A*02:01 complex on T2 cells (member of the P19 mixture) (human); assay: flow cytometry, phage on T2 cells
T11 construct: Loaded on T2 cells as part of the mixture of 19 control peptides
Experimental: as §1

[12] = molecular target: T12, control peptide A2E-13/HLA-A*02:01 complex on T2 cells (member of the P19 mixture) (human); assay: flow cytometry, phage on T2 cells
T12 construct: Loaded on T2 cells as part of the mixture of 19 control peptides
Experimental: as §1

[13] = molecular target: T13, control peptide A2E-14/HLA-A*02:01 complex on T2 cells (member of the P19 mixture) (human); assay: flow cytometry, phage on T2 cells
T13 construct: Loaded on T2 cells as part of the mixture of 19 control peptides
Experimental: as §1

[14] = molecular target: T14, control peptide A2E-15/HLA-A*02:01 complex on T2 cells (member of the P19 mixture) (human); assay: flow cytometry, phage on T2 cells
T14 construct: Loaded on T2 cells as part of the mixture of 19 control peptides
Experimental: as §1

[15] = molecular target: T15, control peptide A2E-16/HLA-A*02:01 complex on T2 cells (member of the P19 mixture) (human); assay: flow cytometry, phage on T2 cells
T15 construct: Loaded on T2 cells as part of the mixture of 19 control peptides
Experimental: as §1

[16] = molecular target: T16, control peptide A2E-17/HLA-A*02:01 complex on T2 cells (member of the P19 mixture) (human); assay: flow cytometry, phage on T2 cells
T16 construct: Loaded on T2 cells as part of the mixture of 19 control peptides
Experimental: as §1

[17] = molecular target: T17, control peptide A2E-19/HLA-A*02:01 complex on T2 cells (member of the P19 mixture) (human); assay: flow cytometry, phage on T2 cells
T17 construct: Loaded on T2 cells as part of the mixture of 19 control peptides
Experimental: as §1

[18] = molecular target: T18, control peptide A2E-21/HLA-A*02:01 complex on T2 cells (member of the P19 mixture) (human); assay: flow cytometry, phage on T2 cells
T18 construct: Loaded on T2 cells as part of the mixture of 19 control peptides
Experimental: as §1

[19] = molecular target: T19, control peptide A2E-23/HLA-A*02:01 complex on T2 cells (member of the P19 mixture) (human); assay: flow cytometry, phage on T2 cells
T19 construct: Loaded on T2 cells as part of the mixture of 19 control peptides
Experimental: as §1

Bio-P19 member A2E-13 = molecular target: T20, Bio-P19 member A2E-13 (chain 2: C-terminal BirA substrate peptide (BSP), enzymatically biotinylated; its letters are not printed in the patent and it is left out); assay: phage ELISA, streptavidin plate, anti-M13-HRP
T20 construct: also called biotinylated control peptide A2E-13/HLA-A*02:01 monomer
Experimental: as §1

Bio-P19 member A2E-14 = molecular target: T21, Bio-P19 member A2E-14 (chain 2: C-terminal BirA substrate peptide (BSP), enzymatically biotinylated; its letters are not printed in the patent and it is left out); assay: phage ELISA, streptavidin plate, anti-M13-HRP
T21 construct: also called biotinylated control peptide A2E-14/HLA-A*02:01 monomer
Experimental: as §1

Bio-P19 member A2E-6 = molecular target: T22, Bio-P19 member A2E-6 (chain 2 carries a C-terminal BirA substrate peptide (BSP), enzymatically biotinylated; the BSP letters are not given in the patent and are left out); assay: phage ELISA, streptavidin plate, anti-M13-HRP
T22 construct: also called biotinylated control peptide A2E-6/HLA-A*02:01 monomer
Experimental: as §1

[20] = molecular target: T23, PSA 146-154 peptide/HLA-A*02:01 complex on the cell surface (human); assay: flow cytometry, phage on T2 cells, anti-M13 + R-PE anti-mouse IgG
T23 construct: also called PSA146/HLA-A*02:01; PSA146-loaded T2 cells
Experimental: as §1

[21] = molecular target: T24, HLA-A*02:01 on T2 cells with no peptide loaded (human); assay: as above
T24 construct: TAP-deficient T2 cells, no peptide loaded from outside; also called T2 cells without peptide loading
Experimental: as §1

B1: PSA146/HLA-A*02:01-specific scFv phage clone #9 (scFv, V domains shown)
VH: QVQLVQSGAEVKKPGASVKVSCKASGYTFTSYGISWVRQAPGQGLEWMGWISAYNGNTNYAQKLQGRVTMTTDTSTSTAYMELRSLRSDDTAVYYCARSSQYYVWDSWGQGTLVTVSS
VL: QSVVTQPPSVSGAPGQRVTISCTGSSSNFGAGYDVHWYQQLPGTAPKLLIYGNSNRPSGVPDRFSGSKSGTSASLAITGLQAEDEADYYCQSYDSSLSGWVFGGGTKLTVLG
B1: no binding [1]; no binding [2]; no binding [3]. B1: no binding [4]; no binding [5]; no binding [6]. B1: no binding [7]; no binding [8]; no binding [9]. B1: no binding [10]; no binding [11]; no binding [12]. B1: no binding [13]; no binding [14]; no binding [15]. B1: no binding [16]; no binding [17]; no binding [18]. B1: no binding [19]; no binding (Bio-P19 member A2E-13); no binding (Bio-P19 member A2E-14). B1: no binding (Bio-P19 member A2E-6); binds [20]; no binding [21].

B2: PSA146/HLA-A*02:01-specific scFv phage clone #10 (scFv, V domains shown)
VH: QVQLVQSGAEVKKPGSSVKVSCKASGGTFSSYAISWVRQAPGQGLEWMGWINPNSGGTNYAQKFQGRVTMTRDTSISTAYMELSRLRSDDTAVYYCARWSYYYFQQFWSLDGWGQGTLVTVSS
VL: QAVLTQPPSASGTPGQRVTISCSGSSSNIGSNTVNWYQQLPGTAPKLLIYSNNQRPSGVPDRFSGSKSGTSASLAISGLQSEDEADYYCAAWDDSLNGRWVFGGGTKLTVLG
B2: no binding [1]; no binding [2]; no binding [3]. B2: no binding [4]; no binding [5]; no binding [6]. B2: no binding [7]; no binding [8]; no binding [9]. B2: no binding [10]; no binding [11]; no binding [12]. B2: no binding [13]; no binding [14]; no binding [15]. B2: no binding [16]; no binding [17]; no binding [18]. B2: no binding [19]; no binding (Bio-P19 member A2E-13); no binding (Bio-P19 member A2E-14). B2: no binding (Bio-P19 member A2E-6); binds [20]; no binding [21].

B3: PSA146/HLA-A*02:01-specific scFv phage clone #12 (scFv, V domains shown)
VH: QMQLVQSGSEVKKPGASVKVSCKASGYTFTSYGISWVRQAPGQGLEWMGWISAYNGNTDYVQKLQGRVTMTTDTSTNTAYMELGSLGSDDTAVYYCARTNYNKYDIWGQGTLVTVSS
VL: QSVLTQPPSVSGAPGQRVTISCTGSSSNIGAGYDVHWYQQLPGTAPKLLIYGNSNRPSGVPDRFSGSKSGTSASLAITGLQAEDEADYYCQSYDSSLSEVFGTGTKVTVLG
B3: no binding [1]; no binding [2]; no binding [3]. B3: no binding [4]; no binding [5]; no binding [6]. B3: no binding [7]; no binding [8]; no binding [9]. B3: no binding [10]; no binding [11]; no binding [12]. B3: no binding [13]; no binding [14]; no binding [15]. B3: no binding [16]; no binding [17]; no binding [18]. B3: no binding [19]; no binding (Bio-P19 member A2E-13); no binding (Bio-P19 member A2E-14). B3: no binding (Bio-P19 member A2E-6); binds [20]; no binding [21].

B4: PSA146/HLA-A*02:01-specific scFv phage clone #13 (scFv, V domains shown)
VH: QVQLVQSGAEVKKPGASVKVSCKASGYTFTSYYMHWVRQAPGQGLEWMGGFDPEDGETIYAQKFQGRVTMTEDTSTDTAYMGLSSLRSEDTAVYYCARYSYDYWGQGTLVTVSS
VL: QAVVTQEPSLTVSPGGTVTLTCASSTGAVTSGYYPNWFQQKPGQAPRALIYSTSNKHSWTPARFSGSLLGGKAALTLSGVQPEDEAEYYCLLYYGGAYVFGTGTKVTVLG
B4: no binding [1]; no binding [2]; no binding [3]. B4: no binding [4]; no binding [5]; no binding [6]. B4: no binding [7]; no binding [8]; no binding [9]. B4: no binding [10]; no binding [11]; no binding [12]. B4: no binding [13]; no binding [14]; no binding [15]. B4: no binding [16]; no binding [17]; no binding [18]. B4: no binding [19]; no binding (Bio-P19 member A2E-13); no binding (Bio-P19 member A2E-14). B4: no binding (Bio-P19 member A2E-6); binds [20]; no binding [21].
